This data set is described as follows: protein stability index of a GFP-peptide fusion (GPS, HEK-293T) (PSI 1-6); higher = more stable.
[1] abbreviates: treatment: DMSO, c terminus: a fixed tail appended.
[2] abbreviates: treatment: MLN4924 1 uM, 8 h, c terminus: a fixed tail appended.
The mark [3] stands for this setting: treatment: DMSO, c terminus: native.
The mark [4] stands for this setting: treatment: MLN4924 1 uM, 8 h, c terminus: native.

± gives the standard deviation.
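Note: 24-mer peptide tiles fused after GFP, lentivirally expressed, FACS-sorted into six equal bins by GFP/DsRed ratio, decoded by Illumina sequencing, PSI is the read-weighted mean bin number.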

Take FPPDLVFRADQRSGPRQLLTLYNP [MOSPD3]: the protein stability index by setting is: under setting [1], 3.13 ± 0.67; under setting [2], 2.93 ± 0.29.

On to FPYVVLACFLVRGLLLRGAVDGIL [SLC6A17], for which the protein stability index by setting is: under setting [1], 2.8 ± 0.65; under setting [2], 3.12 ± 1.1.

As for FQNRRMKHKRQMQDPQLHSPFSGS [VENTX], the protein stability index reads like this: under setting [1], 3.3 ± 0.38; under setting [2], 3.48 ± 0.31.

On to FQQDTKGLVDFRDVALALAALDGG [LPCAT4], for which the protein stability index was found to be 2.48 ± 0.3 under setting [1] and 2.71 ± 0.2 under setting [2].

For FQQLMVETCSCGYYLHPLPAGAEY [SCNN1D], the protein stability index is 2.6 ± 0.69 under setting [1] and 2.8 ± 0.69 under setting [2].

Consider FQTAIDIFEDRIRGIDIIKWMERY [TRAF3IP2], for which the protein stability index reads like this: under setting [1], 1.9 ± 0.34; under setting [2], 2.43 ± 0.66.

Sequence FQTLMFLVRDWSFPYEYSYGLQGG [ATL3] registered a protein stability index under setting [1] of 3.88 ± 1 and a protein stability index under setting [2] of 3.15 ± 0.28.

With FRKFIPKCSKIVIDFDSINSRPSQ [DCTD], the protein stability index is, setting by setting: under setting [1], 2.4 ± 0.27; under setting [2], 2.15 ± 0.33.

As to FRRGSGSACSLLCCCGRDPSEEHS [MCOLN1], the protein stability index reads like this: under setting [1], 3.58 ± 0.35; under setting [2], 3.33 ± 0.24.

Regarding FRTKFETEQALRLSVEADINGLRR [KRT17], the protein stability index turned out to be 3.37 ± 0.14 under setting [1] and 3.38 ± 0.32 under setting [2].

Take FSRVVHLYRNGKDQDGDQAPEYRG [MOG]: the protein stability index by setting is: under setting [1], 3.77 ± 0.21; under setting [2], 3.88 ± 0.34.

FSTVWLCWDMQGKRFVAMKVVKSA [SRPK2]: the protein stability index is, setting by setting: under setting [1], 2.46 ± 0.63; under setting [2], 2.46 ± 0.28.

On to FTQPQQTSFALERNLRTQQEIEDK [C8orf76], for which the protein stability index by setting is: under setting [1], 4.87 ± 0.37; under setting [2], 4.9 ± 0.24.

With FTTFFIDCMAALGLAYDRKKVSKA [SCD], the protein stability index amounted to 2.07 ± 0.32 under setting [1] and 2.26 ± 0.53 under setting [2].

Take FTTLTDRELEEYRREVERKQKGSE [ADD1]: the protein stability index came out at 4.53 ± 0.35 under setting [1] and 4.72 ± 0.4 under setting [2].

For the sequence FVCQCFEGYILREDGKTCRRKDVC [MATN2], the protein stability index runs as follows: under setting [1], 1.99 ± 0.39; under setting [2], 3.09 ± 0.092.

Sequence FVLFLFAYLVTVRGNLSILAAVLV [OR3A1] showed a protein stability index under setting [1] of 3.21 ± 0.52 and a protein stability index under setting [2] of 3.33 ± 0.34.

FVLNAAQCSMPLHVAPLLAAAGLH [NR2F2]: the protein stability index stood at 3.13 ± 0.25 under setting [1] and 2.49 ± 0.48 under setting [2].

FYGETVADYFATFVQREEQLQFLI [CDS1] yielded a protein stability index under setting [1] of 2.71 ± 0.79 and a protein stability index under setting [2] of 2.43 ± 0.32.

Consider GARSKGQCPEPPIVVHCSAGIGRT [PTPN9], for which the protein stability index is, setting by setting: under setting [1], 3.46 ± 0.32; under setting [2], 3.77 ± 0.46.

For GASKAAGVFGFFATIVFATDFYLI [CMTM3], the protein stability index was 3.07 ± 0.23 under setting [1] and 2.88 ± 0.88 under setting [2].

For GCWATDAAPAAGLCGAGSEPSIAP [RSPH3], the protein stability index under setting [1] was 4.26 ± 0.25 and the protein stability index under setting [2] is 4.41 ± 0.07.

Sequence GDAGSRGPMGMRGPPGPQGPPGSP [EMID1] displayed a protein stability index under setting [2] of 4.54 ± 1.7.

GDEMTSLSEYVSRMKETQKSIYYI [HSP90AB1] registered a protein stability index under setting [2] of 2.81 ± 0.3.

Consider GDKCHSLVGKPKIFIIQACRGNQH [CASP6], for which the protein stability index by setting is: under setting [1], 2.19 ± 0.3; under setting [2], 2.33 ± 0.66.

In turn, GEPRKLLTQDWVQENYLEYRQVPG [MAGEA10] had a protein stability index under setting [1] of 3.62 ± 0.17 and a protein stability index under setting [2] of 4.15 ± 0.3.

For the sequence GERETRTPEELTILGETQEEEDEI [CLCN6], the protein stability index under setting [1] was 5.79 ± 0.11 and the protein stability index under setting [2] turned out to be 5.64 ± 0.37.

As to GFWETIFGNRIKRVKLISNKGTET [PHTF1], the protein stability index under setting [1] was determined as 1.6 ± 0.16 and the protein stability index under setting [2] was determined as 2.74 ± 0.053.

In the case of GGCTVGVAGEGVRRKGEMGLSAED [TRIM15], the protein stability index was 4.98 ± 0.46 under setting [1] and 5.21 ± 0.37 under setting [2].

Turning to GGGGLHSVGTYIIDLLTFLTGQKA [GFOD1], the protein stability index is 2.1 ± 0.31 under setting [1] and 1.98 ± 0.36 under setting [2].

GGRRRPPASSRNRSPSGSLRSARG [RBMY1A1] had a protein stability index under setting [1] of 5.16 ± 0.28 and a protein stability index under setting [2] of 5.2 ± 0.18.

On to GGTSVGSLGVPGSVGGVPGGTGSG [ZBTB22], for which the protein stability index was 4.41 ± 0.29 under setting [1] and 4.76 ± 0.088 under setting [2].

In the case of GHSLKNLEHRLNEMERTQAQLRDA [RASAL3], the protein stability index under setting [1] was found to be 4.51 ± 0.24 and the protein stability index under setting [2] turned out to be 4.58 ± 0.22.

As to GIIRCPDGISIPELREACDYLCIS [BTBD10], the protein stability index turned out to be 2.36 ± 0.35 under setting [1] and 2.5 ± 0.2 under setting [2].

As for GILRARRGEGIQAPSFSSYLYFLF [SOAT2], the protein stability index is 2.29 ± 0.31 under setting [1] and 2.11 ± 0.28 under setting [2].

As for GKETMCTVDGLHFNSTYNARVKAF [TRIM9], the protein stability index runs as follows: under setting [1], 3.1 ± 0.37; under setting [2], 3.08 ± 0.23.

Regarding GKHITVFKTYISPWERAMGVDPQQ [MYOZ1], the protein stability index is, setting by setting: under setting [1], 2.33 ± 0.27; under setting [2], 2.18 ± 0.46.

Turning to GKYNAMVLELLGPSLEDLFDLCDR [CSNK1G3], the protein stability index runs as follows: under setting [1], 2.92 ± 0.28; under setting [2], 2.18 ± 0.28.

As for GLDSISHDSANCELPLLTPCSKAV [ETS2], the protein stability index is 4.47 ± 0.076 under setting [1] and 4.55 ± 0.28 under setting [2].

Take GLEALAGGDLMPAPADPTAREGLA [FCHO1]: the protein stability index by setting is: under setting [1], 5.2 ± 0.15; under setting [2], 5.23 ± 0.21.

In the case of GLEGLFEDIDTSMYDNELWAPASE [SERTAD1], the protein stability index by setting is: under setting [1], 3.79 ± 0.05; under setting [2], 3.81 ± 0.29.

As for GLKPNSLYYFRLAARSPQGLGAST [PTPRD], the protein stability index reads like this: under setting [1], 1.89 ± 0.099; under setting [2], 2.85 ± 1.

For GLLKYCSLLVHGFKPACMSEIKNL [TENT5D], the protein stability index is 3.48 ± 0.69 under setting [1] and 2.59 ± 1.2 under setting [2].

As for GLMSFIGNRNKLGYSLARGSIGF [TPRG1], the protein stability index came to 2.67 ± 0.39 under setting [3] and 2.5 ± 0.97 under setting [4].

GLTLGRSFSNYRPFEPQALGLSPS [SEPHS2]: the protein stability index under setting [1] was found to be 2.78 ± 0.36 and the protein stability index under setting [2] turned out to be 2.81 ± 0.49.

Regarding GPQTPKACDSKLTFDAITTIRGEV [MMP1], the protein stability index under setting [1] came out at 3.69 ± 0.28 and the protein stability index under setting [2] turned out to be 3.66 ± 0.25.

GQESEVPYKREEEALEERRLSRGE [PKD2L1]: the protein stability index turned out to be 5.39 ± 0.14 under setting [1] and 5.53 ± 0.15 under setting [2].

Turning to GQRQLMVPARDGTSCKLTDLRGVC [ADAMTSL2], the protein stability index under setting [1] turned out to be 3.08 ± 0.28 and the protein stability index under setting [2] came to 3.01 ± 0.16.

With GRVSKQASQPVKKQQENATSCSLE [WDR41], the protein stability index reads like this: under setting [1], 5.22 ± 0.1; under setting [2], 5.29 ± 0.16.

Take GSACSLLCCCGRDPSEEHSLLVN [MCOLN1]: the protein stability index was 2.3 ± 0.39 under setting [3] and 2.27 ± 0.38 under setting [4].

Sequence GSDTGASLKLASSELERLIVPNSN [JUNB] yielded a protein stability index under setting [1] of 4.31 ± 0.057 and a protein stability index under setting [2] of 4.15 ± 0.17.

Take GSELRDFPGRPMGHLSKDVDENDS [DLC1]: the protein stability index is, setting by setting: under setting [1], 5.63 ± 0.24; under setting [2], 5.51 ± 0.17.

As for GTGGEEVEALQLSARWLEVLRTYL [FBXO33], the protein stability index is, setting by setting: under setting [1], 2.41 ± 0.23; under setting [2], 2.32 ± 0.31.

In the case of GVLRPTVRPGTPPDFILKVVIDKH [CTDNEP1], the protein stability index reads like this: under setting [1], 2.73 ± 0.35; under setting [2], 2.67 ± 0.2.

Regarding GYHQVPGSAAPGSPLAADPACLGQ [FOXJ1], the protein stability index turned out to be 4.46 ± 0.22 under setting [1] and 4.29 ± 0.18 under setting [2].

For GYTFDYAYDWVGRPIPTPVGSVHV [CSNK1G1], the protein stability index turned out to be 2.13 ± 0.44 under setting [1] and 2.14 ± 0.4 under setting [2].

In the case of HAPKIGSNGVEMAAKFPSGSQRAR [SDE2], the protein stability index under setting [1] stood at 4.56 ± 0.13 and the protein stability index under setting [2] is 4.62 ± 0.19.

In the case of HDLIFWRDVKKTGFVFGTTLIMLL [RTN3], the protein stability index was 2.81 ± 0.37 under setting [1] and 2.66 ± 0.49 under setting [2].

HEKTVDIYGHVTLMRAQRNYMVQT [PTPRD]: the protein stability index is, setting by setting: under setting [1], 2.32 ± 0.4; under setting [2], 2.18 ± 0.43.

In the case of HPDSPATGAHWMRQPVSFHRVKLT [TBX6], the protein stability index reads like this: under setting [1], 3.16 ± 0.16; under setting [2], 3.23 ± 0.32.

For HPTYEEKLKLVALHKQVLMGPYNP [ACBD3], the protein stability index worked out at 2.6 ± 0.34 under setting [1] and 2.69 ± 0.37 under setting [2].

With HSFNFVLSANLHGGAVVANYPYDK [CPN1], the protein stability index turned out to be 2.19 ± 0.44 under setting [1] and 2.4 ± 0.2 under setting [2].

Regarding HSSSRDSHLSNGLDPVAETAIRQL [C2CD2L], the protein stability index is, setting by setting: under setting [1], 4.42 ± 0.35; under setting [2], 4.53 ± 0.18.

Take HVGELIIWDALDWTMQAYERNFWD [WDR41]: the protein stability index is, setting by setting: under setting [1], 2.33 ± 0.26; under setting [2], 2.25 ± 0.26.

With HWDLAELLPNQSHGNQSAGEDQAF [SLC22A15], the protein stability index by setting is: under setting [1], 4.85 ± 0.28; under setting [2], 4.8 ± 0.28.

Consider HYCNSSTDRRVLLMFLDICSELNK [SPACA9], for which the protein stability index runs as follows: under setting [1], 2.18 ± 0.35; under setting [2], 2.21 ± 0.29.

On to HYDRNKDGNKDVYLSLLRMYLSPP [VPS39], for which the protein stability index under setting [1] was determined as 2.29 ± 0.14 and the protein stability index under setting [2] worked out at 2.16 ± 0.18.

For HYIAGAHGNEVLGRELLLLLVQFV [CPXM2], the protein stability index under setting [1] amounted to 2 ± 0.075 and the protein stability index under setting [2] is 2.22 ± 0.37.

Take IAHDFPGIGHKVDAVFMKDGFFYF [MMP1]: the protein stability index runs as follows: under setting [1], 2.41 ± 0.69; under setting [2], 2.27 ± 0.16.

Take IAKELSKTYQETPEIDMFLNVATF [ZBED1]: the protein stability index by setting is: under setting [1], 2.07 ± 0.24; under setting [2], 2.12 ± 0.16.

Regarding ICPSTFACAQLATGAACRLVEAVL [HDAC6], the protein stability index under setting [1] came out at 2.17 ± 0.32 and the protein stability index under setting [2] was determined as 2.14 ± 0.049.

Turning to IDLSHVTSKCGSLKNIRHRPGGGR [MAP2], the protein stability index is, setting by setting: under setting [1], 3.18 ± 0.15; under setting [2], 3.35 ± 0.3.

As for IDVSNPQTVGVGRGRFTTYEIRVK [SNX3], the protein stability index is, setting by setting: under setting [1], 2.56 ± 0.25; under setting [2], 2.69 ± 0.35.

These data come from the supplement of paper PMC10567573.
